According to PMC3501490, “An Investigation of Hierachical Protein Recruitment to the Inhibitory Platelet Receptor, G6B-b” (PLoS ONE, 2012):

How the values were obtained:
[1] = molecular target: SHP-2 tandem (N+C) SH2 domains (UniProt Q06124); experiment: SPR kinetics, 37°C; conditions: reference: unphosphorylated peptide
[2] = molecular target: SHP-1 tandem (N+C) SH2 domains (UniProt P29350); experiment: SPR kinetics, 37°C; conditions: reference: unphosphorylated peptide; sites Y211,Y237
Syk SH2 domains = Syk SH2 domains (UniProt P43405); experiment: SPR; conditions: reference: unphosphorylated peptide; sites Y211,Y237
[3] = molecular target: SHP-2 tandem (N+C) SH2 domains (UniProt Q06124); experiment: SPR, 37°C
[4] = molecular target: SHP-1 tandem (N+C) SH2 domains (UniProt P29350); experiment: SPR, 37°C
[5] = molecular target: SHP-2 C-terminal SH2 domain (UniProt Q06124); experiment: SPR, 37°C; conditions: reference: unphosphorylated peptide; sites Y211,Y237
Syk = Syk (UniProt P43405); experiment: biotin-peptide pull-down from platelet lysate; conditions: reference: unphosphorylated peptide; sites Y211,Y237
SHP-2 = SHP-2 (UniProt Q06124); experiment: biotin-peptide pull-down from platelet lysate; conditions: reference: unphosphorylated peptide; sites Y211,Y237
[6] = molecular target: SHP-2 N-terminal SH2 domain (UniProt Q06124); experiment: direct peptide pull-down, Coomassie gel; conditions: reference: unphosphorylated peptide; sites Y211,Y237
[7] = molecular target: SHP-2 tandem (N+C) SH2 domains (UniProt Q06124); experiment: direct peptide pull-down, Coomassie gel
[8] = molecular target: SHP-1 tandem (N+C) SH2 domains (UniProt P29350); experiment: direct peptide pull-down, Coomassie gel
[9] = molecular target: SHP-2 C-terminal SH2 domain (UniProt Q06124); experiment: direct peptide pull-down, Coomassie gel; conditions: reference: unphosphorylated peptide; sites Y211,Y237
[10] = molecular target: Syk tandem (N+C) SH2 domains (UniProt P43405); experiment: direct peptide pull-down, Coomassie gel; conditions: reference: unphosphorylated peptide; sites Y211,Y237
[11] = molecular target: G6B-b dual phosphopeptide (biotinylated 60-mer, amino acids 182 to 241, pY211 and pY237) (human) (UniProt O95866); experiment: pull-down; direct pull down assay: peptide on Streptactin beads incubated with equimolar purified SH2 domains (100 pM [sic] each for the tandem SH2 domains), 250 µl PBS, 30 minutes, room temperature; bound and unbound fractions on Coomassie-stained gels
[12] = molecular target: G6B-b pY237 phosphopeptide (biotinylated 60-mer, amino acids 182 to 241, ITSM phosphorylated) (human) (UniProt O95866); experiment: SPR; BIAcore 3000, biotinylated peptides (50 RU) on streptavidin-coated CM5 chip, single SH2 domains flowed at 10 µl/min, HBS buffer pH 7.4, 0.15 M NaCl, 37°C; KD from equilibrium binding, single site fitting
[13] = molecular target: G6B-b dual phosphopeptide (biotinylated 60-mer, amino acids 182 to 241, pY211 and pY237) (human) (UniProt O95866); experiment: as above
[14] = molecular target: G6B-b pY211 phosphopeptide (biotinylated 60-mer, amino acids 182 to 241, ITIM phosphorylated) (human) (UniProt O95866); experiment: as above
[15] = molecular target: G6B-b pY237 phosphopeptide (biotinylated 60-mer, amino acids 182 to 241, ITSM phosphorylated) (human) (UniProt O95866); experiment: pull-down; direct pull down assay: peptide on Streptactin beads incubated with equimolar purified SH2 domains (100 pM [sic] each for the tandem SH2 domains), 250 µl PBS, 30 minutes, room temperature; bound and unbound fractions on Coomassie-stained gels
[16] = molecular target: G6B-b pY211 phosphopeptide (biotinylated 60-mer, amino acids 182 to 241, ITIM phosphorylated) (human) (UniProt O95866); experiment: as above
[17] = molecular target: G6B-b dual phosphopeptide (biotinylated 60-mer, amino acids 182 to 241, pY211 and pY237) (human) (UniProt O95866); experiment: SPR; purified SH2 domains of Syk, PLCγ2, Src and PI3K p85 over immobilised G6B-b peptides; how the KD was obtained is not told
[18] = reference: pY211 peptide, sites Y237
[19] = reference: pY237 peptide, sites Y211
[20] = reference: unphosphorylated peptide, sites Y211,Y237

G6B-b 182-241 (from UniProt O95866) dual pY211/pY237 peptide
KD ([1]; sites Y211,Y237): 0.48 nM | KD [2]: 35.3 nM | KD (Syk SH2 domains): stronger | binding against the reference [3, 18]: stronger | binding against the reference [3, 19]: stronger | binding against the reference [4, 18]: stronger | binding against the reference [4, 19]: stronger | binding against the reference [5]: stronger | binding against the reference (Syk): stronger | binding against the reference (SHP-2): gained | binding against the reference [6]: stronger | other: share of SH2 protein bound [7, 18]: stronger; reference ∼50 | other: share of SH2 protein bound [7, 19]: stronger; reference ∼25 | other: share of SH2 protein bound [7, 20]: stronger | other: share of SH2 protein bound [8, 18]: gained; reference little or no association | other: share of SH2 protein bound [8, 19]: gained; reference little or no association | other: share of SH2 protein bound [8, 20]: stronger | binding against the reference [9]: stronger | other: share of SH2 protein bound [10]: stronger

G6B-b 182-241 (from UniProt O95866) pY211 peptide
binding against the reference ([1]; sites Y211): stronger | other: share of SH2 protein bound ([7]; reference: unphosphorylated peptide, sites Y211): stronger

G6B-b 182-241 (from UniProt O95866) pY237 peptide
binding against the reference ([1]; sites Y237): stronger | other: share of SH2 protein bound ([7]; reference: unphosphorylated peptide, sites Y237): stronger

PLCγ2 N+C tandem SH2 domains (domain or fragment)
percent bound [11]: 40%

SHP-1 (N+C)SH2 domains (maltose binding protein-tag) (domain or fragment)
percent bound [11]: 30%

SHP-2 (N)SH2 (His-tag) (domain or fragment)
Kd [12]: 10000 nM | Kd [13]: 130 nM | Kd [14]: 110 nM

SHP-2 (N+C)SH2 domains (His-tag) (domain or fragment)
percent bound [15]: 25% | percent bound [11]: 70% | percent bound [16]: 50%

Syk tandem (N+C) SH2 domains (domain or fragment)
percent bound [11]: 20% | Kd [17]: 25000 nM
